Laboratory results from patent US11046988B2, “Process for the modification of a glycoprotein using a β-(1,4)-N-acetylgalactosaminyl transferase or a mutant thereof” (Synaffix B.V., priority 2014, dated 2021).

How the values were obtained:
β-(1,4)-GalNAcT = β-(1,4)-GalNAcT (Caenorhabditis elegans, UniProt Q9GUM2); conditions: sugar nucleotide as donor substrate; cited from earlier work
[1] = system: trimmed trastuzumab (core GlcNAc(Fuc) / core GlcNAc, glycan of formula (1)); test: Glycosyltransfer of sugar derivative to trimmed (Endo S deglycosylated) trastuzumab, MS analysis; assay type: biochemical; conditions: UDP-F2-GalNBzN3 (24) 1 mM, enzyme 0.5 mg/mL, overnight
Protocol: Trimming of IgG glycans was performed using Endo S from Streptococcus pyogenes (commercially available from Genovis, Lund, Sweden). The IgG (10 mg/mL) was incubated with Endo S (40 U/mL) in 25 mM Tris pH 8.0 for approximately 16 hours at 37° C. The deglycosylated IgG was concentrated and washed with 10 mM MnCl2 and 25 mM Tris-HCl pH 8.0 using an Amicon Ultra-0.5, Ultracel-10 Membrane (Millipore).
Trastuzumab was subjected to the trimming protocol above. Analysis of the trimmed antibody was performed on a JEOL AccuToF equipped with an Agilent 1100 HPLC. Samples (2 μL) were reduced with DTT (2 μL) during 10 min and subsequently diluted with H2O (40 μL) prior to injection. […] The two peaks of heavy chain belonged to one major product (49496 Da, 90% of total heavy chain), resulting from core GlcNAc(Fuc) substituted trastuzumab, and a minor product (49351 Da, ±10% of total heavy chain), resulting from core GlcNac substituted trastuzumab. This is an example of a glycoprotein comprising a glycan according to formula (1).
A solution of 50 μg (modified) IgG, 1 M Tris-HCl pH 8.0, 1 mM EDTA and 30 mM DTT with a total volume of approximately 70 μL was incubated for 20 minutes at 37° C. to reduce the disulfide bridges allowing to analyze both light and heavy chain. If present, azide-functionalities are reduced to amines under these conditions. Reduced samples were washed trice with milliQ using an Amicon Ultra-0.5, Ultracel-10 Membrane (Millipore) and concentrated to 10 μM (modified) IgG. The reduced IgG was analyzed by electrospray ionization time-of-flight (ESI-TOF) on a JEOL AccuTOF. Deconvoluted spectra were obtained using Magtran software.
Enzymatic introduction of galactose derivative (e.g. azido-containing sugar) onto IgG was effected with a GalNAc-transferase or a mutant thereof. The deglycosylated IgG (prepared as described above, 10 mg/mL) was incubated with a modified UDP-galactose derivative (e.g. an azido-modified sugar-UDP derivative) (0.4 mM) and GalNAcT (1 mg/mL) in 10 mM MnCl2 and 25 mM Tris-HCl pH 8.0 for 16 hours at 30° C. The functionalized IgG (e.g. azido-functionalized IgG) was incubated with protein A agarose (40 μL per mg IgG) for 2 hours at 4° C. The protein A agarose was washed three times with PBS and the IgG was eluted with 100 mM glycine-HCl pH 2.7. The eluted IgG was neutralized with 1 M Tris-HCl pH 8.0 and concentrated and washed with PBS using an Amicon Ultra-0.5, Ultracel-10 Membrane (Millipore) to a concentration of 15-20 mg/mL.
Enzymatic introduction of galactose derivative (e.g. thio-containing sugar 21) onto IgG was effected with a GalNAc-transferase or a mutant thereof. The deglycosylated IgG (prepared as described above, 10 mg/mL) was incubated with a modified UDP-galactose derivative (e.g. an thio-modified sugar-UDP derivative) (2 mM) and GalNAcT (0.2 mg/mL) in 10 mM MnCl2 and 50 mM Tris-HCl pH 6.0 for 16 hours at 30° C. The functionalized IgG (e.g. thio-functionalized trastuzumab) was incubated with protein A agarose (40 μL per mg IgG) for 1 hours at rt. The protein A agarose was washed three times with TBS (pH 6.0) and the IgG was eluted with 100 mM glycine-HCl pH 2.5. The eluted IgG was neutralized with 1 M Tris-HCl pH 7.0 and concentrated and washed with 50 mM Tris-HCl pH 6.0 using an Amicon Ultra-0.5, Ultracel-10 Membrane (Millipore) to a concentration of 15-20 mg/mL.

[2] = cited from earlier work

β-(1,4)-GalNAcT, sequence (Q9GUM2 whole entry): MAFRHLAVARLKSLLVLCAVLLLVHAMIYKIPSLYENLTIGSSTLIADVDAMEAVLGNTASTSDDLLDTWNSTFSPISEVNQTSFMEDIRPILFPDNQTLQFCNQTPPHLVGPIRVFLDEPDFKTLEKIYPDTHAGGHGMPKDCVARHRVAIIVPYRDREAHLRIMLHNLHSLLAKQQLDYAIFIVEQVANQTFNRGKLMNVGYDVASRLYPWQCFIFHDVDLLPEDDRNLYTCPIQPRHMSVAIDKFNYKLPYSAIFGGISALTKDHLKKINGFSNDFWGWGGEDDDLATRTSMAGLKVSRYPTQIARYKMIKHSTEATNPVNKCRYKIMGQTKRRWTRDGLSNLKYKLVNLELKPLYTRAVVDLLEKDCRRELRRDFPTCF

Molecule: CC(=O)N[C@H]1[C@@H](OP(=O)(O)OP(=O)(O)OC[C@H]2O[C@@H](n3ccc(=O)[nH]c3=O)[C@H](O)[C@@H]2O)O[C@H](CO)[C@@H](O)[C@@H]1O [UDP-GlcNAc]
- transferase activity remaining (compared with UDP-GalNAc) (β-(1,4)-GalNAcT): 0.7%

B1: TnGalNAcT(W336H): T. ni GalNAcT mutant, tryptophan 336 to histidine, SEQ ID NO: 51 (protein)
chain: MGGRATRALRLLLLLVLALAAVEYLFGSILDASPLRTYLYTPLYNATQPTLRNVERLAANWPKKIPSNYIEDSEEYSIKNISLSNHTTRASVVHPPSSITETASKLDKNMTIQDGAFAMISPTPLLITKLMDSIKSYVTTEDGVKKAEAVVTLPLCDSMPPDLGPITLNKTELELEWVEKKFPEVEWGGRYSPPNCTARHRVAIIVPYRDRQQHLAIFLNHMHPFLMKQQIEYGIFIVEQEGNKDFNRAKLMNVGFVESQKLVAEGWQCFVFHDIDLLPLDTRNLYSCPRQPRHMSASIDKLHFKLPYEDIFGGVSAMTLEQFTRVNGFSNKYWGHGGEDDDMSYRLKKINYHIARYKMSIARYAMLDHKKSTPNPKRYQLLSQTSKTFQKDGLSTLEYELVQVVQYHLYTHILVNIDERS
- cumulative conversions of the major and minor product, F2-GalNBzN3 transfer [1]: 62%

B2: TnGalNAcT(I299M): T. ni GalNAcT mutant, isoleucine 299 to methionine, SEQ ID NO: 45 (protein)
chain: MGGRATRALRLLLLLVLALAAVEYLFGSILDASPLRTYLYTPLYNATQPTLRNVERLAANWPKKIPSNYIEDSEEYSIKNISLSNHTTRASVVHPPSSITETASKLDKNMTIQDGAFAMISPTPLLITKLMDSIKSYVTTEDGVKKAEAVVTLPLCDSMPPDLGPITLNKTELELEWVEKKFPEVEWGGRYSPPNCTARHRVAIIVPYRDRQQHLAIFLNHMHPFLMKQQIEYGIFIVEQEGNKDFNRAKLMNVGFVESQKLVAEGWQCFVFHDIDLLPLDTRNLYSCPRQPRHMSASMDKLHFKLPYEDIFGGVSAMTLEQFTRVNGFSNKYWGWGGEDDDMSYRLKKINYHIARYKMSIARYAMLDHKKSTPNPKRYQLLSQTSKTFQKDGLSTLEYELVQVVQYHLYTHILVNIDERS
- cumulative conversions of the major and minor product, F2-GalNBzN3 transfer [1]: 26%

B3: β4GalT(Y289L,M344H): double mutant β-1,4-galactosyltransferase 1 described by Ramakrishnan et al. (protein, UniProt P08037 1-402, looked up, variant Y289L M344H)
chain: MKFREPLLGGSAAMPGASLQRACRLLVAVCALHLGVTLVYYLAGRDLRRLPQLVGVHPPLQGSSHGAAAIGQPSGELRLRGVAPPPPLQNSSKPRSRAPSNLDAYSHPGPGPGPGSNLTSAPVPSTTTRSLTACPEESPLLVGPMLIEFNIPVDLKLVEQQNPKVKLGGRYTPMDCISPHKVAIIIPFRNRQEHLKYWLYYLHPILQRQQLDYGIYVINQAGESMFNRAKLLNVGFKEALKDYDYNCFVFSDVDLIPMNDHNTYRCFSQPRHISVAMDKFGFSLPYVQLFGGVSALSKQQFLSINGFPNNYWGWGGEDDDIYNRLAFRGMSVSRPNAVIGKCRHIRHSRDKKNEPNPQRFDRIAHTKETMLSDGLNSLTYMVLEVQRYPLYTKITVDIGTPS
- activity in the presence of Mg2+ ([2]; Mg2+): 25-30%
- loss of Mn2+-dependent activity ([2]; Mn2+): 98%

B4: TnGalNAcT(L302G): T. ni GalNAcT mutant, leucine 302 to glycine, SEQ ID NO: 44 (protein)
chain: MGSSHHHHHHSSGLVPRGSHMSPLRTYLYTPLYNATQPTLRNVERLAANWPKKIPSNYIEDSEEYSIKNISLSNHTTRASVVHPPSSITETASKLDKNMTIQDGAFAMISPTPLLITKLMDSIKSYVTTEDGVKKAEAVVTLPLCDSMPPDLGPITLNKTELELEWVEKKFPEVEWGGRYSPPNCTARHRVAIIVPYRDRQQHLAIFLNHMHPFLMKQQIEYGIFIVEQEGNKDFNRAKLMNVGFVESQKLVAEGWQCFVFHDIDLLPLDTRNLYSCPRQPRHMSASIDKGHFKLPYEDIFGGVSAMTLEQFTRVNGFSNKYWGWGGEDDDMSYRLKKINYHIARYKMSIARYAMLDHKKSTPNPKRYQLLSQTSKTFQKDGLSTLEYELVQVVQYHLYTHILVNIDERS
modifications: His6-TnGalNAcT(33-421; L302G)
- cumulative conversions of the major and minor product, F2-GalNBzN3 transfer [1]: 14%
